Assay results published in patent US20150374794A1 (Novo Nordisk, published 2015).
Numbered stars: 1 amine (or outer) side, 2 acyl side, 3 side chain; on linkers, the order of the positions; unused ones are H or OH. Square brackets hold non-standard residues; d marks the D form. Side chains are listed from the residue outwards. Ends that are not written are not given here. * marks the point of attachment. C18 diacid = O=C(O)CCCCCCCCCCCCCCCCC(=O)*; γGlu = O=C(O)[C@H](CCC(=O)[*:2])N[*:1]; AEEA = NCCOCCOCC(=O)O; Aib = CC(C)(N)C(=O)O

B1: N^ε29-[(4S)-4-carboxy-4-[[(4S)-4-carboxy-4-[[2-[2-[2-[[2-[2-[2-[[(4S)-4-carboxy-4-(17-carboxyheptadecanoylamino)butanoyl]amino]ethoxy]ethoxy]acetyl]amino]ethoxy … (peptide)
peptide: H[Aib]QGTFTSDLSKYLDTRRAQDFVRWLLSK([γGlu-γGlu-AEEA-AEEA-γGlu-C18 diacid])-NH2
modifications: N-terminus assumed
SMILES: CC(C)C[C@H](NC(=O)[C@H](CC(C)C)NC(=O)[C@H](Cc1c[nH]c2ccccc12)NC(=O)[C@H](CCCNC(=N)N)NC(=O)[C@@H](NC(=O)[C@H](Cc1ccccc1)NC(=O)[C@H](CC(=O)O)NC(=O)[C@H](CCC(N)=O)NC(=O)[C@H](C)NC(=O)[C@H](CCCNC(=N)N)NC(=O)[C@H](CCCNC(=N)N)NC(=O)[C@@H](NC(=O)[C@H](CC(=O)O)NC(=O)[C@H](CC(C)C)NC(=O)[C@H](Cc1ccc(O)cc1)NC(=O)[C@H](CCCCN)NC(=O)[C@H](CO)NC(=O)[C@H](CC(C)C)NC(=O)[C@H](CC(=O)O)NC(=O)[C@H](CO)NC(=O)[C@@H](NC(=O)[C@H](Cc1ccccc1)NC(=O)[C@@H](NC(=O)CNC(=O)[C@H](CCC(N)=O)NC(=O)C(C)(C)NC(=O)[C@@H](N)Cc1c[nH]cn1)[C@@H](C)O)[C@@H](C)O)[C@@H](C)O)C(C)C)C(=O)N[C@@H](CO)C(=O)N[C@@H](CCCCNC(=O)CC[C@H](NC(=O)CC[C@H](NC(=O)COCCOCCNC(=O)COCCOCCNC(=O)CC[C@H](NC(=O)CCCCCCCCCCCCCCCCC(=O)O)C(=O)O)C(=O)O)C(=O)O)C(N)=O
B2: N^ε28-[(4S)-4-carboxy-4-[[(4S)-4-carboxy-4-[[2-[2-[2-[[2-[2-[2-[[(4S)-4-carboxy-4-(17-carboxyheptadecanoylamino)butanoyl]amino]ethoxy]ethoxy]acetyl]amino]ethoxy … (peptide)
peptide: H[Aib]QGTFTSDLSKYLDSRRARDFVQWLLK([γGlu-γGlu-AEEA-AEEA-γGlu-C18 diacid])T-NH2
modifications: N-terminus assumed
SMILES: CC(C)C[C@H](NC(=O)[C@H](Cc1ccc(O)cc1)NC(=O)[C@H](CCCCN)NC(=O)[C@H](CO)NC(=O)[C@H](CC(C)C)NC(=O)[C@H](CC(=O)O)NC(=O)[C@H](CO)NC(=O)[C@@H](NC(=O)[C@H](Cc1ccccc1)NC(=O)[C@@H](NC(=O)CNC(=O)[C@H](CCC(N)=O)NC(=O)C(C)(C)NC(=O)[C@@H](N)Cc1c[nH]cn1)[C@@H](C)O)[C@@H](C)O)C(=O)N[C@@H](CC(=O)O)C(=O)N[C@@H](CO)C(=O)N[C@@H](CCCNC(=N)N)C(=O)N[C@@H](CCCNC(=N)N)C(=O)N[C@@H](C)C(=O)N[C@@H](CCCNC(=N)N)C(=O)N[C@@H](CC(=O)O)C(=O)N[C@@H](Cc1ccccc1)C(=O)N[C@H](C(=O)N[C@@H](CCC(N)=O)C(=O)N[C@@H](Cc1c[nH]c2ccccc12)C(=O)N[C@@H](CC(C)C)C(=O)N[C@@H](CC(C)C)C(=O)N[C@@H](CCCCNC(=O)CC[C@H](NC(=O)CC[C@H](NC(=O)COCCOCCNC(=O)COCCOCCNC(=O)CC[C@H](NC(=O)CCCCCCCCCCCCCCCCC(=O)O)C(=O)O)C(=O)O)C(=O)O)C(=O)N[C@H](C(N)=O)[C@@H](C)O)C(C)C
B3: N^ε24-[(4S)-4-carboxy-4-[[(4S)-4-carboxy-4-[[2-[2-[2-[[2-[2-[2-[[(4S)-4-carboxy-4-(17-carboxyheptadecanoylamino)butanoyl]amino]ethoxy]ethoxy]acetyl]amino]ethoxy … (peptide)
peptide: H[Aib]QGTFTSDLSKYLDSRRARDFVK([γGlu-γGlu-AEEA-AEEA-γGlu-C18 diacid])WLLST-NH2
modifications: N-terminus assumed
SMILES: CC(C)C[C@H](NC(=O)[C@H](Cc1ccc(O)cc1)NC(=O)[C@H](CCCCN)NC(=O)[C@H](CO)NC(=O)[C@H](CC(C)C)NC(=O)[C@H](CC(=O)O)NC(=O)[C@H](CO)NC(=O)[C@@H](NC(=O)[C@H](Cc1ccccc1)NC(=O)[C@@H](NC(=O)CNC(=O)[C@H](CCC(N)=O)NC(=O)C(C)(C)NC(=O)[C@@H](N)Cc1c[nH]cn1)[C@@H](C)O)[C@@H](C)O)C(=O)N[C@@H](CC(=O)O)C(=O)N[C@@H](CO)C(=O)N[C@@H](CCCNC(=N)N)C(=O)N[C@@H](CCCNC(=N)N)C(=O)N[C@@H](C)C(=O)N[C@@H](CCCNC(=N)N)C(=O)N[C@@H](CC(=O)O)C(=O)N[C@@H](Cc1ccccc1)C(=O)N[C@H](C(=O)N[C@@H](CCCCNC(=O)CC[C@H](NC(=O)CC[C@H](NC(=O)COCCOCCNC(=O)COCCOCCNC(=O)CC[C@H](NC(=O)CCCCCCCCCCCCCCCCC(=O)O)C(=O)O)C(=O)O)C(=O)O)C(=O)N[C@@H](Cc1c[nH]c2ccccc12)C(=O)N[C@@H](CC(C)C)C(=O)N[C@@H](CC(C)C)C(=O)N[C@@H](CO)C(=O)N[C@H](C(N)=O)[C@@H](C)O)C(C)C
B4: N^ε21-(4S)-4-carboxy-4-[[(4S)-4-carboxy-4-[[2-[2-[2-[[2-[2-[2-[[(4S)-4-carboxy-4-(17-carboxyheptadecanoylamino)butanoyl]amino]ethoxy]ethoxy]acetyl]amino]ethoxy] … (peptide)
peptide: H[Aib]QGTFTSDLSKYLDSRRARK([γGlu-γGlu-AEEA-AEEA-γGlu-C18 diacid])FVQWLLST-NH2
modifications: N-terminus assumed
SMILES: CC(C)C[C@H](NC(=O)[C@H](Cc1ccc(O)cc1)NC(=O)[C@H](CCCCN)NC(=O)[C@H](CO)NC(=O)[C@H](CC(C)C)NC(=O)[C@H](CC(=O)O)NC(=O)[C@H](CO)NC(=O)[C@@H](NC(=O)[C@H](Cc1ccccc1)NC(=O)[C@@H](NC(=O)CNC(=O)[C@H](CCC(N)=O)NC(=O)C(C)(C)NC(=O)[C@@H](N)Cc1c[nH]cn1)[C@@H](C)O)[C@@H](C)O)C(=O)N[C@@H](CC(=O)O)C(=O)N[C@@H](CO)C(=O)N[C@@H](CCCNC(=N)N)C(=O)N[C@@H](CCCNC(=N)N)C(=O)N[C@@H](C)C(=O)N[C@@H](CCCNC(=N)N)C(=O)N[C@@H](CCCCNC(=O)CC[C@H](NC(=O)CC[C@H](NC(=O)COCCOCCNC(=O)COCCOCCNC(=O)CC[C@H](NC(=O)CCCCCCCCCCCCCCCCC(=O)O)C(=O)O)C(=O)O)C(=O)O)C(=O)N[C@@H](Cc1ccccc1)C(=O)N[C@H](C(=O)N[C@@H](CCC(N)=O)C(=O)N[C@@H](Cc1c[nH]c2ccccc12)C(=O)N[C@@H](CC(C)C)C(=O)N[C@@H](CC(C)C)C(=O)N[C@@H](CO)C(=O)N[C@H](C(N)=O)[C@@H](C)O)C(C)C
B5: N^ε29-[(4S)-4-carboxy-4-[[(4S)-4-carboxy-4-[[2-[2-[2-[[2-[2-[2-[[(4S)-4-carboxy-4-(17-carboxyheptadecanoylamino)butanoyl]amino]ethoxy]ethoxy]acetyl]amino]ethoxy … (peptide)
peptide: H[Aib]QGTFTSDLSKYLDKRRAEDFVQWLLSK([γGlu-γGlu-AEEA-AEEA-γGlu-C18 diacid])-NH2
modifications: N-terminus assumed
SMILES: CC(C)C[C@H](NC(=O)[C@H](CC(C)C)NC(=O)[C@H](Cc1c[nH]c2ccccc12)NC(=O)[C@H](CCC(N)=O)NC(=O)[C@@H](NC(=O)[C@H](Cc1ccccc1)NC(=O)[C@H](CC(=O)O)NC(=O)[C@H](CCC(=O)O)NC(=O)[C@H](C)NC(=O)[C@H](CCCNC(=N)N)NC(=O)[C@H](CCCNC(=N)N)NC(=O)[C@H](CCCCN)NC(=O)[C@H](CC(=O)O)NC(=O)[C@H](CC(C)C)NC(=O)[C@H](Cc1ccc(O)cc1)NC(=O)[C@H](CCCCN)NC(=O)[C@H](CO)NC(=O)[C@H](CC(C)C)NC(=O)[C@H](CC(=O)O)NC(=O)[C@H](CO)NC(=O)[C@@H](NC(=O)[C@H](Cc1ccccc1)NC(=O)[C@@H](NC(=O)CNC(=O)[C@H](CCC(N)=O)NC(=O)C(C)(C)NC(=O)[C@@H](N)Cc1c[nH]cn1)[C@@H](C)O)[C@@H](C)O)C(C)C)C(=O)N[C@@H](CO)C(=O)N[C@@H](CCCCNC(=O)CC[C@H](NC(=O)CC[C@H](NC(=O)COCCOCCNC(=O)COCCOCCNC(=O)CC[C@H](NC(=O)CCCCCCCCCCCCCCCCC(=O)O)C(=O)O)C(=O)O)C(=O)O)C(N)=O
B6: N^ε28-[(4S)-4-carboxy-4-[[2-[2-[2-[[2-[2-[2-[[(4S)-4-carboxy-4-[[(4S)-4-carboxy-4-(17-carboxyheptadecanoylamino)butanoyl]amino]butanoyl]amino]ethoxy]ethoxy]acet … (peptide)
peptide: H[Aib]HGTFTSDLSKYLESRRAREFVQWLLK([γGlu-AEEA-AEEA-γGlu-γGlu-C18 diacid])T-NH2
modifications: N-terminus assumed
SMILES: CC(C)C[C@H](NC(=O)[C@H](Cc1ccc(O)cc1)NC(=O)[C@H](CCCCN)NC(=O)[C@H](CO)NC(=O)[C@H](CC(C)C)NC(=O)[C@H](CC(=O)O)NC(=O)[C@H](CO)NC(=O)[C@@H](NC(=O)[C@H](Cc1ccccc1)NC(=O)[C@@H](NC(=O)CNC(=O)[C@H](Cc1c[nH]cn1)NC(=O)C(C)(C)NC(=O)[C@@H](N)Cc1c[nH]cn1)[C@@H](C)O)[C@@H](C)O)C(=O)N[C@@H](CCC(=O)O)C(=O)N[C@@H](CO)C(=O)N[C@@H](CCCNC(=N)N)C(=O)N[C@@H](CCCNC(=N)N)C(=O)N[C@@H](C)C(=O)N[C@@H](CCCNC(=N)N)C(=O)N[C@@H](CCC(=O)O)C(=O)N[C@@H](Cc1ccccc1)C(=O)N[C@H](C(=O)N[C@@H](CCC(N)=O)C(=O)N[C@@H](Cc1c[nH]c2ccccc12)C(=O)N[C@@H](CC(C)C)C(=O)N[C@@H](CC(C)C)C(=O)N[C@@H](CCCCNC(=O)CC[C@H](NC(=O)COCCOCCNC(=O)COCCOCCNC(=O)CC[C@H](NC(=O)CC[C@H](NC(=O)CCCCCCCCCCCCCCCCC(=O)O)C(=O)O)C(=O)O)C(=O)O)C(=O)N[C@H](C(N)=O)[C@@H](C)O)C(C)C

What follows are binders tested against human glucagon receptor (human, UniProt P47871 26-477) (assay: cell-based or functional assay).
Chain of human glucagon receptor (P47871 26-477): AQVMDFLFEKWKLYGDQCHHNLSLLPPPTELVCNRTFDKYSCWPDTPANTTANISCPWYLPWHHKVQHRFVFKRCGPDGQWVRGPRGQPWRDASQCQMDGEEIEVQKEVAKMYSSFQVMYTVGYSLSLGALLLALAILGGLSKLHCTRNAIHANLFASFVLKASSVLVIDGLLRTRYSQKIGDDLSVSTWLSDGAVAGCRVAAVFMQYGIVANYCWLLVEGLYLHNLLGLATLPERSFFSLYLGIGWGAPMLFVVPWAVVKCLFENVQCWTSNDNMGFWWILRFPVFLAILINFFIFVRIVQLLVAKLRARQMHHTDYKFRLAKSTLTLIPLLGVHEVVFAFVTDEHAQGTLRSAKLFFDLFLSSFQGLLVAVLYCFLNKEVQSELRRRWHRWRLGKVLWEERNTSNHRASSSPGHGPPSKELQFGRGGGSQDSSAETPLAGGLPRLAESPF

Q: For B1, which “EC50 GlucR, CRE luciferase reporter gene assay in BHK cells” value (from here on “EC50 GlucR”) is on record?
A: The value was 0.19 nM.

Q: With B2 as the binder, how does the “EC50 GlucR” value read?
A: The value was 0.016 nM.

Q: With B3 as the binder, how does the “EC50 GlucR” value read?
A: Its value is 0.06 nM.

Q: B4 was tested. Which “EC50 GlucR” value did it give?
A: Its value is 0.097 nM.

Q: B5 was tested. Which “EC50 GlucR” value did it give?
A: The value was 0.599 nM.

Q: How did the “EC50 GlucR” value turn out when B6 was run?
A: The value was 0.0048 nM.

The binders below were run against T1, human GLP-1 receptor (human, UniProt P43220 24-463) (assay: cell-based or functional assay).

Q: B1 was tested. Which “EC50 GLP-1R, CRE luciferase reporter gene assay in BHK cells” value (shortened to “EC50 GLP-1R”) did it give?
A: Its value is 0.02 nM.

Q: With B2 as the binder, how does the “EC50 GLP-1R” value read?
A: The value was 0.004 nM.

Q: B3 was tested. Which “EC50 GLP-1R” value did it give?
A: Its value is 0.006 nM.

Q: B4 was tested. Which “EC50 GLP-1R” value did it give?
A: Its value is 0.044 nM.

Q: How did the “EC50 GLP-1R” value turn out when B5 was run?
A: Its value is 0.028 nM.

Q: For B6, which “EC50 GLP-1R” value is on record?
A: The value was 0.0357 nM.

Q: For H[Aib]QGTFTSDLSKYLESKRAREFVQWLLK([γGlu-γGlu-Ser-Glu-Ser-γGlu-γGlu-C18 diacid])T-NH2, which “EC50 GLP-1R” value is on record?
A: Its value is 0.004 nM.

The binders below were run against T1, human GLP-1 receptor (assay: displacement of 125I-GLP-1(7-36)NH2, membranes with human GLP-1R, SPA).
Experimental: The receptor binding of each compound to the human GLP-1 receptor was measured in a displacement binding assay. […] Each derivative was added in a series of concentrations to isolated membranes containing the human GLP-1 receptor and displacement of the labelled ligand was monitored. The receptor binding was reported as the concentration at which half of the labelled ligand was displaced from the receptor, the IC₅₀ value.

Q: With B6 as the binder, how does the IC50 read?
A: Its IC50 is 1.4 nM.

Q: H[Aib]QGTFTSDLSKYLESKRAREFVQWLLK([γGlu-γGlu-Ser-Glu-Ser-γGlu-γGlu-C18 diacid])T-NH2 was tested. Which IC50 did it give?
A: The IC50 was 0.2 nM.
